# Test results published in patent US20180224449A1.
# Ends that are not written are not given here.
# Target: OprF outer membrane protein on P. stutzeri cells (P. stutzeri)
# Experiment: fluorometry at 525 nm of 1x10^9 P. stutzeri cells labeled with peptide-QD525 conjugate
row,Binder,Fluorescence (RFU)
1,QITLRST (conjugated to a quantum dot (QD525)) [OBP7 peptide-quantum dot conjugate],2620
2,RRSNSQL (conjugated to a quantum dot (QD525)) [OBP4 peptide-quantum dot conjugate],4520
3,NMTNPPP (conjugated to a quantum dot (QD525)) [OBP6 peptide-quantum dot conjugate],2080
4,QMLLRLP (conjugated to a quantum dot (QD525)) [OBP9 peptide-quantum dot conjugate],3340

# Target: Opr86 outer membrane protein on P. stutzeri cells (P. stutzeri)
# Experiment: as above
row,Binder,Fluorescence (RFU)
1,MHNLNLL (conjugated to a quantum dot (QD525)) [OPP2 peptide-quantum dot conjugate],1850
2,LRPLMNR (conjugated to a quantum dot (QD525)) [OPP4 peptide-quantum dot conjugate],1380
3,PRIRKSH (also: conjugated to quantum dot) [OPP1 peptide-quantum dot conjugate],12300
4,RKKSRIR (conjugated to a quantum dot (QD525)) [OPP6 peptide-quantum dot conjugate],4130
5,LPSTIHR (conjugated to a quantum dot (QD525)) [OPP3 peptide-quantum dot conjugate],2250
6,IITMKRR (conjugated to a quantum dot (QD525)) [OPP5 peptide-quantum dot conjugate],4410

# Target: Opr86 outer membrane protein on A. venetianus cells (A. venetianus)
# Experiment: fluorometry of cells recovered from spiked 1 L Jet A fuel and labeled with 1.5 uM peptide-QD545, at the LOD of 5 x 10^5 CFU
row,Binder,Fluorescence (RFU)
1,PRIRKSH (also: conjugated to quantum dot) [OPP1 peptide-quantum dot conjugate],773

# Target: Opr86 outer membrane protein on P. stutzeri cells (P. stutzeri)
# Experiment: as above
row,Binder,Fluorescence (RFU)
1,PRIRKSH (also: conjugated to quantum dot) [OPP1 peptide-quantum dot conjugate],820
